3 molecules from patent publication US20250011433A1 (published 2025) can be followed below.

The assay has as its target C1q (UniProt P02745 23-245; P02746 28-253; P02747 29-245). Description: ELISA.

Chain of C1q (P02745 23-245, chain 1 of 3): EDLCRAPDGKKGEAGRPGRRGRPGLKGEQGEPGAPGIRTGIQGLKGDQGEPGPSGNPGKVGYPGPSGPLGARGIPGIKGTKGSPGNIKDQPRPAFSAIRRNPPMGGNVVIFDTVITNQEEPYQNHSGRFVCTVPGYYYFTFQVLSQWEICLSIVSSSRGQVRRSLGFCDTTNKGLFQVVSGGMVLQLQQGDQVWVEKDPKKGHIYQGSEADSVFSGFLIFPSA
Chain of C1q (P02746 28-253, chain 2 of 3): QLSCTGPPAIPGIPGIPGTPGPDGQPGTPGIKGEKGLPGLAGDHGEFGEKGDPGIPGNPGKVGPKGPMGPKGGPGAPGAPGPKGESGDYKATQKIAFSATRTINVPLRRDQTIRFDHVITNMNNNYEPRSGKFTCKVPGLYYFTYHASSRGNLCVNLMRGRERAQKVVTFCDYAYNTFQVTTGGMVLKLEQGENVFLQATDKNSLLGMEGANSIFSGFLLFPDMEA
Chain of C1q (P02747 29-245, chain 3 of 3): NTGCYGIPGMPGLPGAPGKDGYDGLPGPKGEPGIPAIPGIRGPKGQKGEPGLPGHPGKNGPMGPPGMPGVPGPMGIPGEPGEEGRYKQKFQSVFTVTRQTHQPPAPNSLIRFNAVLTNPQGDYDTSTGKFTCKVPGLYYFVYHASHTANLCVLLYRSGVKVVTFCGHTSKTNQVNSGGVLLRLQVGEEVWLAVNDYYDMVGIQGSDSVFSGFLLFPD

B1: G998 (Fc fusion)
chain: EPKSCDKTHTCPPCPAPELLGGPSVFLFPPKPKDTLMISRTPEVTCVVVDVEFEDPEVKFNWYVDGVEVHNAKTKPREEQYASTYRVVSVLTVLHQDWLNGKEYKCKVTNKALPAPIEKTISKAKGQPREPQVYTLPPSRDELTKNQVSLTCLVKGFYPSDIAVEWESNGQPENNYKTTPPVLDSDGSFFLYSKLTVDKSRWQQGNVFSCSVMHEALHNHYTQKSLSLSPGKERKCCVECPPCP
The term EC50 denotes the concentration giving half of the maximal effect. Read a high EC50 as a less potent agent. Take B1: the EC50 came out at 0.334 µg/mL.

B2: G996 (Fc fusion)
chain: EPKSCDKTHTCPPCPAPELLRGPSVFLFPPKPKDTLMISRTPEVTCVVVDVEFEDPEVKFNWYVDGVEVHNAKTKPREEQYNSTYRVVSVLTVLHQDWLNGKEYKCKVTNKALPAPIEKTISKAKGQPREPQVYTLPPSRDELTKNQVSLTCLVKGFYPSDIAVEWESNGQPENNYKTTPPVLDSDGSFFLYSKLTVDKSRWQQGNVFSCSVMHEALHNHYTQKSLSLSPGKERKCCVECPPCP
The molecule B2 came in with an EC50 of 0.278 µg/mL.

B3: G997 (Fc fusion)
chain: EPKSCDKTHTCPPCPAPELLGGPSVFLFPPKPKDTLMISRTPEVTCVVVDVEFEDPEVKFNWYVDGVEVHNAKTKPREEQYNSTYRVVSVLTVLHQDWLNGKEYKCKVTNKALPAPIEKTISKAKGQPREPQVYTLPPSRDELTKNQVSLTCLVKGFYPSDIAVEWESNGQPENNYKTTPPVLDSDGSFFLYSKLTVDKSRWQQGNVFSCSVMHEALHNHYTQKSLSLSPGKERKCCVECPPCP
Consider B3, for which the half-maximal effective concentration (EC50) turned out to be 0.0166 µg/mL.
